Reference: the supplement of paper PMC10126150
± gives the standard deviation of the averaged measurements.
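Further: ATP exposure 15 min at 22 °C before imaging.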

These sequences were tested on ATP (assay: switch fluorescence ratio, 500 uM ATP over buffer (Cy3 cluster intensity, sum of 5 cycles each) (fold (ratio)); higher = stronger signal-on switching upon ATP binding; sequences stand for … in TCGTCGGCAGCGTCAGATGTGTATAAGAGACAGTTTTTTTTTTTTTTTTTTTTTTTTT…TC). Settings: aptamer strand: ATP DNA aptamer (quencher-CACCTGGGGGAGTATTGCGGAGGAAGG + anchor), 100 nM annealed; ATP concentration: 500 uM.
How it was run: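 Clusters carrying Cy3-labelled switching strands on a modified Illumina MiSeq flow-cell were annealed to 100 nM quencher-labelled ATP aptamer and imaged in selection buffer. They were imaged again after 15 min with 500 uM ATP at 22 °C, over five buffer/ATP cycles with NaOH stripping and re-annealing in between. For each cluster, the fluorescence ratio is the summed Cy3 intensity of the target cycles divided by that of the buffer cycles, averaged per switch-domain sequence. Clusters outside 100-1000 RFU were left out.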
With AGAGGCGTTA the switch fluorescence ratio was 1.01 ± 0.025.
With TAACGTGGTG the switch fluorescence ratio was 1.05 ± 0.019.
With GGGGTATACT the switch fluorescence ratio was 1.021 ± 0.0052.
GGTTGTTTCT gave a switch fluorescence ratio of 0.997 ± 0.0057.
GGGCCCGTAT gave a switch fluorescence ratio of 1.014 ± 0.0091.
GCTCTTGATG gave a switch fluorescence ratio of 0.98 ± 0.041.
In the case of ATCGAAGCCA, the switch fluorescence ratio is reported as 1.091 ± 0.0016.
Work on TTAGAGAGCG yielded a switch fluorescence ratio of 1.018 ± 0.0096.
GGTGGAAGTA was tested, and the switch fluorescence ratio was 0.998 ± 0.064.
TAATATTTTA was tested, and the switch fluorescence ratio was 0.987 ± 0.014.
In the case of AGTACCAATG, the switch fluorescence ratio is reported as 1.03 ± 0.039.
In the case of CATCTAGGGG, the switch fluorescence ratio is reported as 0.999 ± 0.061.
Sequence TGGTTATTTT has a switch fluorescence ratio of 0.998 ± 0.036.
With GGTATAAGGG the switch fluorescence ratio was 0.997 ± 0.02.
For TGCAGCTGTA, the switch fluorescence ratio was 1.04 ± 0.014.
GGATTGAAGT showed a switch fluorescence ratio of 0.981 ± 0.023.
Sequence GGTGCGGTCG has a switch fluorescence ratio of 0.9824 ± 0.0053.
In the case of GGCGATACTA, the switch fluorescence ratio is reported as 1.92 ± 0.11.
GCAAGGTAGC showed a switch fluorescence ratio of 1.07 ± 0.011.
ACAATCTAAA gave a switch fluorescence ratio of 1.033 ± 0.0091.
AAACGAAATT showed a switch fluorescence ratio of 1.03 ± 0.068.
For TAAAATGGCG, the switch fluorescence ratio was 1 ± 0.055.
Work on TGTTGGGGGG yielded a switch fluorescence ratio of 1.01 ± 0.057.
Work on GGGGAATTAG yielded a switch fluorescence ratio of 0.973 ± 0.008.
For GAAGGATATT, the switch fluorescence ratio was 1.018 ± 0.0039.
Work on CTGAGGTATG yielded a switch fluorescence ratio of 1.023 ± 0.0057.
CAGGATTGTT showed a switch fluorescence ratio of 1.02 ± 0.04.
AGTAACGGTG showed a switch fluorescence ratio of 1.034 ± 0.0019.
TTGGTAGGGT showed a switch fluorescence ratio of 0.995 ± 0.031.
Work on CGGTACCCAT yielded a switch fluorescence ratio of 1.01 ± 0.018.
Work on TTTAAATAAA yielded a switch fluorescence ratio of 1 ± 0.017.
Sequence AGCAAAATGG has a switch fluorescence ratio of 1.0258 ± 0.00022.
In the case of GGTGGGGT, the switch fluorescence ratio is reported as 1.01 ± 0.0055.
Sequence ACATGATTCG has a switch fluorescence ratio of 0.99 ± 0.03.
With TTGGAAAATA the switch fluorescence ratio was 1.009 ± 0.0042.
In the case of CGGAAAGCAG, the switch fluorescence ratio is reported as 1.02 ± 0.028.
AAGGTTTCAA gave a switch fluorescence ratio of 0.985 ± 0.018.
GAGGGGAACT gave a switch fluorescence ratio of 0.995 ± 0.021.
Work on TTAGCTTGGT yielded a switch fluorescence ratio of 0.999 ± 0.043.
TTTAATTACT gave a switch fluorescence ratio of 1.04 ± 0.037.
For ATGGTCTGCG, the switch fluorescence ratio was 1 ± 0.018.
Sequence CGGTTTGGCA has a switch fluorescence ratio of 0.992 ± 0.014.
For TCGGTGACGG, the switch fluorescence ratio was 1.01 ± 0.017.
GGGGATGTTG was tested, and the switch fluorescence ratio was 0.996 ± 0.013.
Sequence TTGCAAGTCA has a switch fluorescence ratio of 1.05 ± 0.018.
CTTTTATTTT showed a switch fluorescence ratio of 1.03 ± 0.012.
TATGTATTAT gave a switch fluorescence ratio of 0.994 ± 0.062.
ACAGTCAGAT showed a switch fluorescence ratio of 1.057 ± 0.0067.
Sequence TCGACCGATT has a switch fluorescence ratio of 1.03 ± 0.037.
Work on CAATAGATGT yielded a switch fluorescence ratio of 1.042 ± 0.0021.
For TAGGGGCCTA, the switch fluorescence ratio was 0.995 ± 0.011.
Work on CGGAATAGTG yielded a switch fluorescence ratio of 1.2 ± 0.039.
With GGGGTTCTTA the switch fluorescence ratio was 1.02 ± 0.091.
Work on AAGAGTTCCT yielded a switch fluorescence ratio of 1.03 ± 0.032.
For TCTGTTGACG, the switch fluorescence ratio was 1.0236 ± 0.00081.
Sequence AAGTTTGTCT has a switch fluorescence ratio of 1.004 ± 0.0053.
TGTGTTGTTT showed a switch fluorescence ratio of 1 ± 0.044.
CTTTGAGGTG showed a switch fluorescence ratio of 1.04 ± 0.069.
TGCGATGAGG gave a switch fluorescence ratio of 1.01 ± 0.046.
TCGGCGGTGG was tested, and the switch fluorescence ratio was 0.963 ± 0.05.
Sequence ATGATTGACC has a switch fluorescence ratio of 1.083 ± 0.0026.
With TTTGATTGAA the switch fluorescence ratio was 0.975 ± 0.03.
In the case of TCAGTTGGTT, the switch fluorescence ratio is reported as 0.977 ± 0.064.
With TTTCTGGTGC the switch fluorescence ratio was 1.16 ± 0.085.
In the case of TAAGTCCCGG, the switch fluorescence ratio is reported as 0.984 ± 0.05.
AAAAGGGACG showed a switch fluorescence ratio of 1.05 ± 0.12.
With TCTTCCTGGA the switch fluorescence ratio was 1.08 ± 0.039.
Sequence AGATATAATA has a switch fluorescence ratio of 1.02 ± 0.035.
Sequence CTGATATTGT has a switch fluorescence ratio of 0.9844 ± 0.0066.
In the case of TTTTCGGCCC, the switch fluorescence ratio is reported as 1.01 ± 0.026.
Work on TCACGCTTTT yielded a switch fluorescence ratio of 1.11 ± 0.12.
Work on ATTACGGCAT yielded a switch fluorescence ratio of 1.18 ± 0.047.
Work on GAGTTGCTTA yielded a switch fluorescence ratio of 1.006 ± 0.01.
CGGGGGTGTG was tested, and the switch fluorescence ratio was 0.993 ± 0.035.
Sequence ATAGCGGAGA has a switch fluorescence ratio of 1 ± 0.036.
Work on GTTTTGTATG yielded a switch fluorescence ratio of 1.004 ± 0.0044.
With TATGATAGGT the switch fluorescence ratio was 0.9914 ± 0.0013.
In the case of TATCGGGGTT, the switch fluorescence ratio is reported as 0.98 ± 0.046.
GGTGGGTGGT showed a switch fluorescence ratio of 0.99 ± 0.036.
In the case of ATAATGGGGT, the switch fluorescence ratio is reported as 1.026 ± 0.0044.
For TGTGATGATG, the switch fluorescence ratio was 0.947 ± 0.036.
For CTGCTTTGTC, the switch fluorescence ratio was 0.941 ± 0.0058.
Work on TGGAAGCGTT yielded a switch fluorescence ratio of 0.98 ± 0.041.
TGGGGGGGCT gave a switch fluorescence ratio of 1.02 ± 0.036.
Sequence TTGAGGGTGG has a switch fluorescence ratio of 1.0305 ± 0.0005.
CATATCATGG showed a switch fluorescence ratio of 0.988 ± 0.037.
CTCATATTTA gave a switch fluorescence ratio of 1.01 ± 0.019.
In the case of GTTATCAGTT, the switch fluorescence ratio is reported as 0.99 ± 0.014.
With GTGTCTACAT the switch fluorescence ratio was 1.02 ± 0.014.
Sequence TGTTAAACGC has a switch fluorescence ratio of 0.945 ± 0.03.
With CCGGGGTTAT the switch fluorescence ratio was 1.119 ± 0.0047.
GTCGTCTTTT showed a switch fluorescence ratio of 1.01 ± 0.012.
Work on AAGCCCGCAC yielded a switch fluorescence ratio of 1.879 ± 0.0067.
AAGTTGTTGT showed a switch fluorescence ratio of 1.007 ± 0.0025.
For TGAGGCATGT, the switch fluorescence ratio was 1.05 ± 0.036.
Work on CCGGAACGGT yielded a switch fluorescence ratio of 0.986 ± 0.031.
GCTGGGAATT was tested, and the switch fluorescence ratio was 1 ± 0.016.
TTATGAGGTT was tested, and the switch fluorescence ratio was 1.02 ± 0.026.
Work on TTTGGGAGGT yielded a switch fluorescence ratio of 0.99 ± 0.063.
In the case of TATAATGCGC, the switch fluorescence ratio is reported as 0.995 ± 0.034.
